B1: B5-5 monomer (VHH)
VHH: QVQLVESGGGLVQPGGSLRLSCAVFGSTLDNYSVGWFRQLPGKEREGLACFSRRYGAPYYADSAKDRFTISRDNAKNTVDLQLNGLKPEDTAVYYCATRSGPYCTTSVSDFDDWGRGTQVTVSS
B2: A8 monomer (VHH)
VHH: QVQLVESGGGLVQAGGSLRLSCAASGGTFSTAAMGWFRQAPGEERECVASIGWRGVRTWYADSVKGRFTISRDNPQNTVYLQMNNLKSGDTAVYYCAASVGNYGLPWAHFEYDFWGQGIQVTVSS

Target: SARS-CoV-2 Wuhan RBD, de-glycosylated (SARS-CoV-2, UniProt P0DTC2)
Assay: crystal structure
Conditions: both partners purified

| Binder | binding result |
| --- | --- |
| B1 | binds |
| B2 | binds |

Source: article PMC11285730 (Open Biology, 2024)
